Assay results published in patent US9920295B2, “Bioreactor for isolation of rare cells and methods of use” (The Trustees of the University of Pennsylvania, priority 2012, dated 2018).

Tested on: CD34+-derived cells
Assay: Apoptosis by cleaved caspase-3 intracellular flow cytometry and Annexin-V
Assay type: cell-based, human
Settings: G-CSF 100 ng/ml; CH-223191 500 nM (4n fraction)
Method: Cells were fixed with 4% paraformaldehyde in PBS for 10 min, washed with PBS and resuspended in 0.1% saponin in HBSS (staining medium). The samples were then stained with antibodies against cytoplasmic antigens, including NMM-IIA (Sigma), NMM-IIB, phospho-NMM-IIA and caspase-3 (all from Cell Signaling Technology) for 30 min at room temperature. In some cases, cells were concurrently stained with PE anti-CD34 or anti-human CD38 for subpopulation analysis. Cells were then washed and stained with anti-rabbit or mouse secondary antibodies conjugated with Alexa 647 (Invitrogen) for 30 min, followed by analysis on FACSCalibur.

B1: G-CSF: human recombinant granulocyte colony-stimulating factor (protein, UniProt P09919 31-207, looked up)
Granulocyte …: TPLGPASSLPQSFLLKCLEQVRKIQGDGAALQEKLVSECATYKLCHPEELVLLGHSLGIPWAPLSSCPSQALQLAGCLSQLHSGLFLYQGLLQALEGISPELGPTLDTLQLDVADFATTIWQQMEELGMAPALQPTQGAMPAFASAFQRRAGGVLVASHLQSFLEVSYRVLRHLAQP
viability of untreated CD34+ and CD34− cells: improves the viability
